Key:
Assay in all cases: holdup assay
Parameters in all cases: key: below the threshold = too weak to quantify, mostly under pKd 3.1 to 4
Conditions in all cases: plain residues with an end cap or a label only (N-terminal biotin on a linker: ado-ado)
CARD11, Q9BXL7 = target: T1, CARD11, Q9BXL7
T1 sequence (Q9BXL7 662-765, limits assumed, looked up): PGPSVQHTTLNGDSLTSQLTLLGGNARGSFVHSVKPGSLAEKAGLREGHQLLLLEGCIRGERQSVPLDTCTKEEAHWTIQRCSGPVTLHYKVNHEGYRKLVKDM

CASK, O14936 = target: CASK, O14936
DLG2_2, Q15700 = target: DLG2_2, Q15700
DLG2_2, Q15700, sequence (Q15700 189-283): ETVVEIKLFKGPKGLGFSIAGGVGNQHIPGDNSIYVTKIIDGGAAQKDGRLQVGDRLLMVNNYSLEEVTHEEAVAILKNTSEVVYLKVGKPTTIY

FRMPD2_1, Q68DX3 = target: FRMPD2_1, Q68DX3
FRMPD2_1, Q68DX3, sequence (Q68DX3 770-861): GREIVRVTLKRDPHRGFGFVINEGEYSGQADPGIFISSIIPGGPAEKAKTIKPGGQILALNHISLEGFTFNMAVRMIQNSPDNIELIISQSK

GOPC, Q9HD26 = target: GOPC, Q9HD26
GRIP1_2, Q9Y3R0 = target: T2, GRIP1_2, Q9Y3R0
T2 sequence (Q9Y3R0 145-248, limits assumed, looked up): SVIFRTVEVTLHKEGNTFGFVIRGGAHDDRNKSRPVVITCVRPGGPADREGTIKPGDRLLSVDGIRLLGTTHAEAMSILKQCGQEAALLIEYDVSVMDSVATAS

GRIP2_3, Q9C0E4 = target: GRIP2_3, Q9C0E4
GRIP2_3, Q9C0E4, sequence (Q9C0E4 238-339): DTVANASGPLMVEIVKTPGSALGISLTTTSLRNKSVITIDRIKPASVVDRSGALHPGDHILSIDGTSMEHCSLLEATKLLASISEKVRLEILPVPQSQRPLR

GRIP2_4, Q9C0E4 = target: GRIP2_4, Q9C0E4
GRIP2_4, Q9C0E4, sequence (Q9C0E4 446-548): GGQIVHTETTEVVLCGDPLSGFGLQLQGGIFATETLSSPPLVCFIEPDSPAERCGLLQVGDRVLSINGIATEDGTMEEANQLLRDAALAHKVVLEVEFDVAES

HTRA1, Q92743 = target: HTRA1, Q92743
HTRA1, Q92743, sequence (Q92743 360-477): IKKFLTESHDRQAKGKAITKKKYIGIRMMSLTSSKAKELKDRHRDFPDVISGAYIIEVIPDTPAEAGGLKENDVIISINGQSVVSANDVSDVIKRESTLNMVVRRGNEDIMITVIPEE

HTRA4, P83105 = target: T3, HTRA4, P83105
T3 sequence (P83105 378-476, limits assumed, looked up): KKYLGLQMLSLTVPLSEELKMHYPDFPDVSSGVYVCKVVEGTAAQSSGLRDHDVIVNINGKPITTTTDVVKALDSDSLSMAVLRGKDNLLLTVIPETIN

Inadl_5, Q8NI35 = target: Inadl_5, Q8NI35
Inadl_5, Q8NI35, sequence (Q8NI35 673-780): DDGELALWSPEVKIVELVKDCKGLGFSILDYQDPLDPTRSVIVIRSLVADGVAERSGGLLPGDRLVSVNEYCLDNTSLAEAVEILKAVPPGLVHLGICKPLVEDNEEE

Inadl_6, Q8NI35 = target: Inadl_6, Q8NI35
Inadl_6, Q8NI35, sequence (Q8NI35 1058-1167): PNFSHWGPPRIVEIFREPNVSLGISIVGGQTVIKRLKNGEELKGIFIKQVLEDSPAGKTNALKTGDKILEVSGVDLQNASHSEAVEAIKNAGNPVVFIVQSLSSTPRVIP

LDB3, O75112 = target: LDB3, O75112
LDB3, O75112, sequence (O75112 1-94): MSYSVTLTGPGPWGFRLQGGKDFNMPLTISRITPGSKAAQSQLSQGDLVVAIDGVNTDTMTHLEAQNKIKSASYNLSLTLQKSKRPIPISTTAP

LNX1_3, Q8TBB1 = target: LNX1_3, Q8TBB1
LNX1_3, Q8TBB1, sequence (Q8TBB1 500-596): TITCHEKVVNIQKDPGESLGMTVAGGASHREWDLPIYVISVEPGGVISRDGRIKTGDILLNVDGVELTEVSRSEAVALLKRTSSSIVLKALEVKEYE

MAGI2_3, Q86UL8 = target: MAGI2_3, Q86UL8
MAGI2_3, Q86UL8, sequence (Q86UL8 600-682): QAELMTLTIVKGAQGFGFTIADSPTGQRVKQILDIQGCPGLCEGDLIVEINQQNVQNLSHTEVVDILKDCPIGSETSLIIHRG

MAGI2_4, Q86UL8 = target: MAGI2_4, Q86UL8
MAGI2_4, Q86UL8, sequence (Q86UL8 772-865): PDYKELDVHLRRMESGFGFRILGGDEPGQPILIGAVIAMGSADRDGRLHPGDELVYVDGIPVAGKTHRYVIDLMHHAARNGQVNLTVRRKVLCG

MAGI2_5, Q86UL8 = target: MAGI2_5, Q86UL8
MAGI2_5, Q86UL8, sequence (Q86UL8 915-1017): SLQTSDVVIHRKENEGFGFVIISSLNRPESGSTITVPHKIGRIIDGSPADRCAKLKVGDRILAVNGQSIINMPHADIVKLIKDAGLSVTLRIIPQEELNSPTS

MAST1, Q9Y2H9 = target: MAST1, Q9Y2H9
MAST1, Q9Y2H9, sequence (Q9Y2H9 962-1065): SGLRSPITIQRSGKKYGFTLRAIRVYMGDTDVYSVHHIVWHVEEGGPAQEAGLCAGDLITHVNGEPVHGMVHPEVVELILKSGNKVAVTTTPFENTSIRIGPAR

NHERF3_3, Q5T2W1 = target: T4, NHERF3_3, Q5T2W1
T4 sequence (Q5T2W1 238-333, limits assumed, looked up): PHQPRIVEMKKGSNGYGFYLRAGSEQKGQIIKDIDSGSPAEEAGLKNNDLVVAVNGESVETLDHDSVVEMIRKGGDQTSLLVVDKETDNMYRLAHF

NHERF3_4, Q5T2W1 = target: T5, NHERF3_4, Q5T2W1
T5 sequence (Q5T2W1 373-468, limits assumed, looked up): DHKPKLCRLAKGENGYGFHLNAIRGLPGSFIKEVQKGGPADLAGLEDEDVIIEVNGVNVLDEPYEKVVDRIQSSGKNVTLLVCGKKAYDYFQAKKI

NHERF4_2, Q86UT5 = target: NHERF4_2, Q86UT5
NHERF4_2, Q86UT5, sequence (Q86UT5 220-308): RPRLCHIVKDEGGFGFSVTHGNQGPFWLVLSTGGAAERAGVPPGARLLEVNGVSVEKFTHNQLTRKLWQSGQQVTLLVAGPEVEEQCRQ

PDZD2_2, O15018 = target: T6, PDZD2_2, O15018
T6 sequence (O15018 329-429, limits assumed, looked up): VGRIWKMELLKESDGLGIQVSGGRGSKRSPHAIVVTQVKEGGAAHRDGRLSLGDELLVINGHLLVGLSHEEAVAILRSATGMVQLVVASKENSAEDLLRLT

PICK1, Q9NRD5 = target: PICK1, Q9NRD5
PICK1, Q9NRD5, sequence (Q9NRD5 17-115): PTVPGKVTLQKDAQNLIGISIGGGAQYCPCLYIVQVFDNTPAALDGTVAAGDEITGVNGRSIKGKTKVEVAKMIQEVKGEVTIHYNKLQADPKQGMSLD

PTPN3, P26045 = target: PTPN3, P26045
PTPN3, P26045, sequence (P26045 505-587): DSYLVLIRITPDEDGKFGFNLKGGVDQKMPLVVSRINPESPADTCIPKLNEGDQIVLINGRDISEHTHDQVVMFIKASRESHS

SCRIB_2, Q14160 = target: SCRIB_2, Q14160
SCRIB_2, Q14160, sequence (Q14160 857-960): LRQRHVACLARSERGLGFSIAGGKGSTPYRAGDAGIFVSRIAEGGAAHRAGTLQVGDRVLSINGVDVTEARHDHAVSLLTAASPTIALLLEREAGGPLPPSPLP

SIPA1L2, Q9P2F8 = target: T7, SIPA1L2, Q9P2F8
T7 sequence (Q9P2F8 945-1036, limits assumed, looked up): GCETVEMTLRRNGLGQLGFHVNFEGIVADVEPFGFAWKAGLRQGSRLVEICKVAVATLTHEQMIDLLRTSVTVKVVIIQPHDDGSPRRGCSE

SNTA1, Q13424 = target: T8, SNTA1, Q13424
T8 sequence (Q13424 82-180, limits assumed, looked up): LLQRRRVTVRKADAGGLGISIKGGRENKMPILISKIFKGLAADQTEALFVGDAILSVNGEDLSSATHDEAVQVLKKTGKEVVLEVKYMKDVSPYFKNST

SNTG1, Q9NSN8 = target: T9, SNTG1, Q9NSN8
T9 sequence (Q9NSN8 52-150, limits assumed, looked up): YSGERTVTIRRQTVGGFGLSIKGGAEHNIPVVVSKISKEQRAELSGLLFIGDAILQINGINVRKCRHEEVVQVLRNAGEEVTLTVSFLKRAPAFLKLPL

TJP3_3, O95049 = target: T10, TJP3_3, O95049
T10 sequence (O95049 375-456, limits assumed, looked up): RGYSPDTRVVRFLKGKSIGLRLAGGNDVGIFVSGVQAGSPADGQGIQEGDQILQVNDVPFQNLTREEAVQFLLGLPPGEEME

CASK, O14936, sequence (O14936 487-570): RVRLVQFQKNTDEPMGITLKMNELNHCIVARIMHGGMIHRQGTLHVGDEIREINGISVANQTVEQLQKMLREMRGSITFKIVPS

| Binder | pKd (CARD11, Q9BXL7) | pKd (CASK, O14936) | pKd (DLG2_2, Q15700) | pKd (FRMPD2_1, Q68DX3) | pKd (GOPC, Q9HD26) | pKd (GRIP1_2, Q9Y3R0) | pKd (GRIP2_3, Q9C0E4) | pKd (GRIP2_4, Q9C0E4) | pKd (HTRA1, Q92743) | pKd (HTRA4, P83105) | pKd (Inadl_5, Q8NI35) | pKd (Inadl_6, Q8NI35) | pKd (LDB3, O75112) | pKd (LNX1_3, Q8TBB1) | pKd (MAGI2_3, Q86UL8) | pKd (MAGI2_4, Q86UL8) | pKd (MAGI2_5, Q86UL8) | pKd (MAST1, Q9Y2H9) | pKd (NHERF3_3, Q5T2W1) | pKd (NHERF3_4, Q5T2W1) | further results |
| --- | --- | --- | --- | --- | --- | --- | --- | --- | --- | --- | --- | --- | --- | --- | --- | --- | --- | --- | --- | --- | --- |
| VISSDDLTEL [CAPN6, Q9Y6Q1] | below the threshold | below the threshold | below the threshold | below the threshold | below the threshold | below the threshold | below the threshold | below the threshold | 4.55 | 3.92 | below the threshold | below the threshold | 3.53 | below the threshold | 3.68 | below the threshold | 3.53 | 4.99 | below the threshold | below the threshold | pKd (NHERF4_2, Q86UT5): below the threshold; pKd (PDZD2_2, O15018): 4.39; pKd (PICK1, Q9NRD5): below the threshold; pKd (PTPN3, P26045): 4.12; pKd (SCRIB_2, Q14160): below the threshold; pKd (SIPA1L2, Q9P2F8): below the threshold; pKd (SNTA1, Q13424): below the threshold; pKd (SNTG1, Q9NSN8): below the threshold; pKd (TJP3_3, O95049): below the threshold |
| RGKNRRQSIF [CDK18, Q07002] | below the threshold | below the threshold | 3.5 | 3.5 | below the threshold | below the threshold | below the threshold | below the threshold | 4 | below the threshold | below the threshold | below the threshold | below the threshold | below the threshold | 3.64 | below the threshold | below the threshold | 4.15 | below the threshold | below the threshold | pKd (NHERF4_2, Q86UT5): below the threshold; pKd (PDZD2_2, O15018): below the threshold; pKd (PICK1, Q9NRD5): 4.17; pKd (PTPN3, P26045): 3.77; pKd (SCRIB_2, Q14160): below the threshold; pKd (SIPA1L2, Q9P2F8): below the threshold; pKd (SNTA1, Q13424): below the threshold; pKd (SNTG1, Q9NSN8): below the threshold; pKd (TJP3_3, O95049): below the threshold |
| THHRKIHTRV [ZNF599, Q96NL3] | below the threshold | below the threshold | 5.38 | 3.89 | 4.67 | below the threshold | below the threshold | below the threshold | 3.67 | below the threshold | 3.49 | below the threshold | below the threshold | below the threshold | 3.82 | below the threshold | 3.75 | 4.48 | below the threshold | 3.55 | pKd (NHERF4_2, Q86UT5): below the threshold; pKd (PDZD2_2, O15018): below the threshold; pKd (PICK1, Q9NRD5): below the threshold; pKd (PTPN3, P26045): below the threshold; pKd (SCRIB_2, Q14160): 4.15; pKd (SIPA1L2, Q9P2F8): below the threshold; pKd (SNTA1, Q13424): 4.3; pKd (SNTG1, Q9NSN8): 3.61; pKd (TJP3_3, O95049): below the threshold |
